Legend:
Assay in all cases: pull-down; 4 μg GST protein with 2 μg HIS-S5a in 800μL 2% Chaps buffer (20mM Tris pH 8.0, 150mM NaCl, 2mM MgCl2, 10% glycerol, 2.0% Chaps), glutathione agarose beads, 2 hrs at room temperature; washes with PBS, 2% Tween-20, 200 mM KCl; blot for S5a
Settings in all cases: both partners purified
[1] = molecular target: T1, GST-ubiquilin-2 P506T (human, UniProt Q9UHD9 1-624, P506T)
T1 construct: ubiquilin-2, human, full-length cDNA, 624 aa, ALS-linked mutation P506T; pGST/His T1 vector; also called P506T mutation; source: E. coli BL21(DE3), purified (glutathione-agarose); not shown: GST, N-terminal, kept

[2] = molecular target: T2, GST-ubiquilin-2 P509S (human, UniProt Q9UHD9 1-624, P509S)
T2 construct: ubiquilin-2, human, full-length cDNA, 624 aa, ALS-linked mutation P509S; pGST/His T1 vector; also called P509S mutation; source: E. coli BL21(DE3), purified (glutathione-agarose); not shown: GST, N-terminal, kept

[3] = molecular target: T3, GST-ubiquilin-2 wild type (human, UniProt Q9UHD9 1-624)
T3 construct: ubiquilin-2, human, full-length cDNA, 624 aa; cloned downstream of GST in the pGST/His T1 vector; also called GST-fusion protein encoding WT ubiquilin-2; source: E. coli BL21(DE3), purified (glutathione-agarose); not shown: GST, N-terminal, kept

[4] = molecular target: T4, GST-ubiquilin-2 P497H (human, UniProt Q9UHD9 1-624, P497H)
T4 construct: ubiquilin-2, human, full-length cDNA, 624 aa, ALS-linked mutation P497H; pGST/His T1 vector; also called P497H mutation; source: E. coli BL21(DE3), purified (glutathione-agarose); not shown: GST, N-terminal, kept

[5] = molecular target: T5, GST-ubiquilin-2 P525S (human, UniProt Q9UHD9 1-624, P525S)
T5 construct: ubiquilin-2, human, full-length cDNA, 624 aa, ALS-linked mutation P525S; pGST/His T1 vector; also called P525S mutation; source: E. coli BL21(DE3), purified (glutathione-agarose); not shown: GST, N-terminal, kept

[6] = molecular target: T6, GST-ubiquilin-2 P497S (human, UniProt Q9UHD9 1-624, P497S)
T6 construct: ubiquilin-2, human, full-length cDNA, 624 aa, ALS-linked mutation P497S; pGST/His T1 vector; also called P497S mutation; source: E. coli BL21(DE3), purified (glutathione-agarose); not shown: GST, N-terminal, kept

Measured: binding result

T3 sequence (Q9UHD9 whole entry, the tested form may be a part): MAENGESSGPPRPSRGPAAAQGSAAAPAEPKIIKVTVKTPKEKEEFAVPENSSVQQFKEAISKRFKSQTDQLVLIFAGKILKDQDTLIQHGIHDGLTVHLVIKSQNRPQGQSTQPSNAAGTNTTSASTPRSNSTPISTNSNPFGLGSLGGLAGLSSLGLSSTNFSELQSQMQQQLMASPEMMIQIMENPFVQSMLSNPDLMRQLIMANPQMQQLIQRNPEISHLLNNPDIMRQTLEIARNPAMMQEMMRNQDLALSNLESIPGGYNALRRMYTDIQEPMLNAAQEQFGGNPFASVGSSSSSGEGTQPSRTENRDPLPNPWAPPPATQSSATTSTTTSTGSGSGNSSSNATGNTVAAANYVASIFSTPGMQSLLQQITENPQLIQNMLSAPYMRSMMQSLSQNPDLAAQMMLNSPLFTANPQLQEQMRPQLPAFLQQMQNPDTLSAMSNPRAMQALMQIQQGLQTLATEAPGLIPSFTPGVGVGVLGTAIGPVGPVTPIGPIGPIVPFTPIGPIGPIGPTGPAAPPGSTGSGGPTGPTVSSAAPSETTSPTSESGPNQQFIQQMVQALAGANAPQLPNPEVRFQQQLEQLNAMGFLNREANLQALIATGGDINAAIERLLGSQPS
T1 sequence (Q9UHD9 whole entry P506T): as the sequence (Q9UHD9 whole entry, the tested form may be a part) above, with P506T counted along it
T4 sequence (Q9UHD9 whole entry P497H): as the sequence (Q9UHD9 whole entry, the tested form may be a part) above, with P497H counted along it
T5 sequence (Q9UHD9 whole entry P525S): as the sequence (Q9UHD9 whole entry, the tested form may be a part) above, with P525S counted along it
T2 sequence (Q9UHD9 whole entry P509S): as the sequence (Q9UHD9 whole entry, the tested form may be a part) above, with P509S counted along it
T6 sequence (Q9UHD9 whole entry P497S): as the sequence (Q9UHD9 whole entry, the tested form may be a part) above, with P497S counted along it

B1: HIS-tagged human S5a protein (natural protein, UniProt P55036 1-377, looked up)
chain: MVLESTMVCVDNSEYMRNGDFLPTRLQAQQDAVNIVCHSKTRSNPENNVGLITLANDCEVLTTLTPDTGRILSKLHTVQPKGKITFCTGIRVAHLALKHRQGKNHKMRIIAFVGSPVEDNEKDLVKLAKRLKKEKVNVDIINFGEEEVNTEKLTAFVNTLNGKDGTGSHLVTVPPGPSLADALISSPILAGEGGAMLGLGASDFEFGVDPSADPELALALRVSMEEQRQRQEEEARRAAAASAAEAGIATTGTEDSDDALLKMTISQQEFGRTGLPDLSSMTEEEQIAYAMQMSLQGAEFGQAESADIDASSAMDTSEPAKEEDDYDVMQDPEFLQSVLENLPGVDPNNEAIRNAMGSLASQATKDGKKDKKEEDKK
notes: S5a subunit of the 19S cap of the proteasome, human, entire open reading frame (377 aa); cloned in pET-21a; also called His-S5a; HIS-S5a; source: E. coli BL21(DE3), purified (Ni-NTA agarose)
binds: all assays above
